Among the data in article PMC10237670, “Biochemical properties of naturally occurring human bloom helicase variants” are Kd values, retold here.

For one series, the target named is BLMcore K869A K870A (Homo sapiens, UniProt P54132 636-1298, K869A;K870A). Description: EMSA; 5 mM MgCl2; smear; estimated apparent KD; 50 mM Tris-HCl pH 7.5, 50 mM KCl, 5 mM MgCl2, 1 mM DTT, 0.1 mg/mL BSA, 40 nM DNA, 30 min room temperature; 5% gel in TBE + 100 mM KCl at 4 C. As to conditions: protein: recombinant, (HisTrap purified).
Sequence of BLMcore K869A K870A (P54132 636-1298 K869A/K870A): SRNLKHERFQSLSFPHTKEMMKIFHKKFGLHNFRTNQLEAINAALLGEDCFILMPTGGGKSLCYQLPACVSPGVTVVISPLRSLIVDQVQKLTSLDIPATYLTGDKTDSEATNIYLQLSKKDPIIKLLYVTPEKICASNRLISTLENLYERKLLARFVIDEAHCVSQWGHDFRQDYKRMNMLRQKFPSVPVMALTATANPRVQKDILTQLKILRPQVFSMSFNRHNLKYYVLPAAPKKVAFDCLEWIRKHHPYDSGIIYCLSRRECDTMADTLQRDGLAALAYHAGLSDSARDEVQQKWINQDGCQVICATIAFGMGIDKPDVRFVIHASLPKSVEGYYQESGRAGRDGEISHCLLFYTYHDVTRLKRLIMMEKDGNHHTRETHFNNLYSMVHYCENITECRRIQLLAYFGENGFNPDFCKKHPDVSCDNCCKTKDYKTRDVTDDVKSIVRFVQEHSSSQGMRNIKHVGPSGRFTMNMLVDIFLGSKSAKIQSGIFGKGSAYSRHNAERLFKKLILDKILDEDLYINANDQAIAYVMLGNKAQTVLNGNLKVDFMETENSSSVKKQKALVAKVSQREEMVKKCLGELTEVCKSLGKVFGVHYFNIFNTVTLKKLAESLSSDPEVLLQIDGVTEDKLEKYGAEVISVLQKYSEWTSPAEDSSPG
In series [1] the target is T1, BLMcore G1120R (Homo sapiens, UniProt P54132 636-1298, G1120R). The description is as above. To be noted: protein: recombinant, (HisTrap purified).
T1 sequence (P54132 636-1298 G1120R): as the sequence (P54132 636-1298 K869A/K870A) above, with A234K, A235K, G485R counted along it
The target in series [2] is T2, BLMcore P868L (Homo sapiens, UniProt P54132 636-1298, P868L). The series is described as above. To be noted: protein: recombinant, (HisTrap purified).
T2 sequence (P54132 636-1298 P868L): as the sequence (P54132 636-1298 K869A/K870A) above, with P233L, A234K, A235K counted along it
In series [3] the target is T1, BLMcore G1120R. The series can be described thus: EMSA; 5 mM MgCl2; distinct shift; estimated apparent KD; 50 mM Tris-HCl pH 7.5, 50 mM KCl, 5 mM MgCl2, 1 mM DTT, 0.1 mg/mL BSA, 40 nM DNA, 30 min room temperature; 5% gel in TBE + 100 mM KCl at 4 C. As to conditions: protein: recombinant; (HisTrap purified); label: 3'-FAM on oAV320 (strand 2); 18 bp duplex, 3' overhang 39 nt on strand 1.

Series [4] addresses T2, BLMcore P868L. The series is described as above. To be noted: protein: recombinant; (HisTrap purified); label: 3'-FAM on oAV320 (strand 2); 18 bp duplex, 3' overhang 39 nt on strand 1.
The mark [5] stands for this setting: label: 3'-FAM, intramolecular G4 (folded in 100 mM KCl) with 3' T-rich ssDNA tail.

B1: G4 DNA with 3' ssDNA overhang (FAM-oRC96) (structured_DNA)
DNA: GGGTTAGGGTTAGGGTTAGGGTTTTTTTTTT
Take B1: the Kd with BLMcore K869A K870A (setting [5]) is around 625 nM; with BLMcore G1120R [1] (setting [5]), around 250 nM; with BLMcore P868L [2] (setting [5]) it was around 125 nM.

B2: FAM-dT30 (ssDNA) (ssDNA)
DNA: TTTTTTTTTTTTTTTTTTTTTTTTTTTTTT
As for B2, the Kd with BLMcore K869A K870A (single strand) was around 312 nM; with BLMcore G1120R [1] (single strand), around 62.5 nM; with BLMcore P868L [2] (single strand), around 62.5 nM.

B3: partial dsDNA with 3' ssDNA overhang (oRC32/FAM-oAV320) (dsDNA)
DNA 1: TGGCGACGGCAGCGAGGCTTAGGGTTAGCGTTAGCGTTAGGGTTTTTTTTTTTTTTT
DNA 2: GCCTCGCTGCCGTCGCCA
Turning to B3, the Kd with BLMcore G1120R [3] and with BLMcore P868L [4] was around 62.5 nM each time.
